Consider 15 sequences from the DeepSol protein solubility set.

A short description of this data set: soluble on expression in E. coli; label from the status in PepcDB or PDB records.
Consider “MSLEQKILAQGALEAARRRQSEQEKALLLSQLKQLQSQMEPHFLFNTLANINALIAVEPYKAQLMLEKFTELLRGTMRLRRTNTGDLREEMQLIDAYLGIQKIRLGERLEYTLPELSELGTLGMPPMLIQPLVENAVSHGIEPKAEGGTIRVRIEVADDWFELSVEDNGMGLSDTPKGNGIALQNVRDRLSGLFGHEGLLTVAQNCSGGVTATLRIRLHHLQGLQRSFYDYSQARSPQSEGHHHHHH”, for which the “soluble on expression in E. coli” value is “soluble”.

As to “RGIPQITGPTTVNGLERGSLTVQCVYRSGWETYLKWWCRGAIWRDCKILVKTSGSEQEVKRDRVSIKDNQKNRTFTVTMEDLMKTDADTYWCGIEKTGNDLGVTVQVTIDPAPVTQEETSSSPT”, the “soluble on expression in E. coli” value is given as “soluble”.

Regarding “MGSSHHHHHHSSGLVPAGSHMSDFDNITTADDVFKLAAQRTGLSEIDSDSWREGLALIVDEVNTSPVFTPFGRQRVLDDATNALGRRLQVHAYIQDHPEVLDAPVERPLIVLGMPRTGTTVISYLLDQDPARRSLLHWQCVHPIPPASTETLRTDPRCLALLDEQRKILDAVTRAKMPLPHWEDADGPTEDMFIHNQDFKGLSWDSFLPTDRYARWLFDEADMSSTYEYQKRYLQVLQSTAPGSWSLKMPSHSVHIEALLKVFPDARLIWAHRDPYKATGSLCNLWRLPQSLVMNTELLDQTEMGRLAMWQMRYHVDRPLRARERIGDERFFHMYYHEMMRDPMDVMRRIYEWADEPLTAETEARMRNWLAHHPQDRFALNAYRLDEYGLTVEALQPIFAEYLDTFDIELEGRP”, the “soluble on expression in E. coli” value is “soluble”.

As to “MAHHHHHHMKAASAAAPAAQTKAAAEAKAATATTAASSLSLSLLQYGASLYEAHTHLPEAAVARLPLNRYADYLRHFGFSMERESRGAAAPGTTLALDCTSPNHKTQAPLDGRWGKRVETDTSYDPVEVAGWGLPEALRCEADQQCNAVGSLSDATEWSAIAKQLVHPFMSVTWRQTATQCTMKKACCVYMWLCSHMTLQVSVPGAEEDAKEDSGGVSTVGLPSAAKAASLARKANRPARKVKEVPTTLEPAAPPDPLLVALQTRRAPAPVLADVYMHMLTSVGVLCEVVVGQLKGAAPEEAFEWSWNMVTVDGRQYLVDVSAALSNGVLRSAASYSDVPSSVAVPEAGKGQRAGNAAGRGKAATPSQSSPPAGSGAVPCSESVQLLPVTPERLRREFFFFAHPTYFLASHFPADPAKALVRTAMRAVQWGVRPRLTPAFYYYGLQLASHKTHSTFAASGSPSYVSFVNHHASTTELCCALYMGTLGTLPEDLSQTAPLGAEWVWHQREESTSTDTFTLTVPQAGYYVVVIGARPIRADPYSAVFTVAGETAFTPVVSYEMRVGFTPSSSPVLPRQYLSPSICRLITPLCSQILPGKHTFCVMPSCSNVLAVAVVKFVAAAATRTLLSLLPFQPRSAAFEGDVDVRSGECVEVWVLYGAPDRNGQELSQRAAAAAPPKAAATPCRSPTPAAKFKAADKKKREASAEHQQQLSALESQLAHLTQALHKGEVFQRCVGGIEVRHFVSPAVVGVIQPQPMVEQEQSITLRRLAGVTDALLREAEEVVRRQPAPVGSYFGAVEAAAAKS”, the “soluble on expression in E. coli” value is given as “not soluble”.

As for “MEVKEMFSLGGGLGRSKVDESKVWDVIIIGAGPAGYTAAIYAARFGLDTIIITKDLGGNMAITDLIENYPGFPEGISGSELSKKMYDQVKKYGVEVIIDEVIRIDPAECAYYEGPCNFVVKTANGKEYKAKTIIIAVGAEPRKLNVPGEKEFTGRGVSYCATCDGPLFVGKEVIVVGGGNTALQEALYLHSIGVKVTLVHRRDKFRADKILQDRFKQAGIPAILNTVVTEIKGTNKVESVVLKNVKTGETVEKKVDGVFIFIGYEPKTDFVKHLGITDEYGYIPVDMYMRTKVPGIFAAGDITNVFKQIAVAVGQGAIAANSAKEFIESWNGKTIE”, the “soluble on expression in E. coli” value is on record as “soluble”.

On to “MHPRKIEIVTAAVTCFLERGYHQTGIRDIARQAGVSLGNLYNHFAGKEAVLAFIAELEGRELAAFVDMLSDPEEPYAALERFIWAYAAYAARPENALLGLELMAEALRNPTISQVFDGNRHQLVAALMGCLERGVSTGRFRHLDDTRALALMILDTLEGQGLRQLDRKTPDPDAVRTLCAVLTTGLLARDQSPPPVPCNTPCSSA”, for which the “soluble on expression in E. coli” value is listed as “not soluble”.

Consider “MNEEKQQELLISVIITNYNYDQFIDQAIESVLSQTYYNFELIIVDDGSTDNSRDVISSYTDSRIKALVKNNGGQASAFNAGFEQANGEIICFLDSDDWWKPEKLETIIRWHYFINKDYAIFQHVLDVWYEGKTRPYKHILPSGDCFAEMKKVKKLDFFVPTSGLSFPKKILDRIFPIPIKFIIAADSYIMRTACVFNMVYSIPKSLGFYRQHDNTVFLNPDFDLQPFLKEILIPELNQFYQKYRINYQIEISDYNFNERKKNKKQKIFEYLKKVFFLEHHHHHH”, for which the “soluble on expression in E. coli” value is “not soluble”.

In the case of “VVTCATDGNHGRSVAWGAQMFGCGCIIYIHRDVSEGRKVAMEAFDAEVIRITGNYDESVRQAGADAKAHGRIIVSDTSYEGYMEVPKDVALGYTVMLAETVEQLDGEIPTHVFVQGGVGGLASAVAGYFWDLWGDRRPRFVVVEPEQANCLQLSAKAGEPVVVKGDLDTLMAGLACGEVSLLAWQILSNGADDFMTLSEDAIADTMSLLAKGYKGDPAIEAGESAVPGLAAAINARAQDTFAKALNLDAQSKVLVIGTEGAT”, the “soluble on expression in E. coli” value was “not soluble”.

Regarding “SMQQRKVLTLEKEDNQTFGFEIQTYGLHHREEQRVEMVTFVCRVHESSPAQLAGLTPGDTIASVNGLNVEGIRHREIVDIIKASGNVLRLETLYSSTL”, the “soluble on expression in E. coli” value was “soluble”.

“SYLGSEFDNVELKDLANVLSFGEAKLGDNGQKFNFLFHTASSNVWVPSIKCTSESCESKNHYDSSKSKTYEKDDTPVKLTSKAGTISGIFSKDLVTIGKLSVPYKFIEMTEIVGFEPFYSESDVDGVFGLGWKDLSIGSIDPYIVELKTQNKIEQAVYSIYLPPENKNKGYLTIGGIEERFFDGPLNYEKLNHDLMWQVDLDVHFGNVSSKKANVILDSATSVITVPTEFFNQFVESASVFKVPFLSLYVTTCGNTKLPTLEYRSPNKVYTLEPKQYLEPLENIFSALCMLNIVPIDLEKNTFVLGDPFMRKYFTVYDYDNHTVGFALAKNL”: the “soluble on expression in E. coli” value is “soluble”.

Consider “MGSDKIHHHHHHVSLLGEERKSQIMQWLEEEGKVMTKDLIDRLDVSGETVRRYLEELERERQLKRVYGGAIYQGGKQESPISRRTDQLSRRLARYAKGWLADYSCIFLGKGEPVEHLLPYLSGSATIVTNSLSIASHLEQCRETGPFHGEIRLLGGTVDSYGQTVGVEVLQALDAYAFDASFLTFDGAEIERGFVSDDIESSLIQKAIIGRTKDVYAFLACDEFEGNRKYKVAEFRRAKIVLSPSTYPPSWEMKLFNERVNWTVVS”, for which the “soluble on expression in E. coli” value was “not soluble”.

For “MSKDAVSILFLGIDDNEGRRKNGQTTEHSRTDSMILSTFSPEKRQIRLLSIPRDTISYIPKVGYYDKITHAHAYGGPVAAMDSVEATLNVPVDYYVRVNMDAFVEAVDELGGIYYDVPYDLNEPNTDDSGRIKIKKGYQKLNGDEALAVARTRHHDSDLKRGERQMDLIKLLFQKAKSLDSYDKLDDLVQIVGKNAKHNLTSSEIKSLASMYLSDDIEFKKSQLKGKDDYLQNIYYYNPSVSSIMKYSNILRSDLGLSKITDKDEFLDQRVIKHYGTLIPLTPLDQSLLKNNQKDSSSSDDNNDDSTNSDNNNNIQSSEENSSNSNEGIDQSSQGSTQSDNYNQTNSSNSFNNNQDQMNQIYLEHHHHHH”, the “soluble on expression in E. coli” value is reported as “soluble”.

Regarding “MPKKRENRGRRKGDKGHVGYISCDQCGARVPEDKAVCVTKMYSPVDASLASELEKKGAIIARYPVTKCYCVNCAVFLGIIKIRAENERKQKARLRLEHHHHHH”, the “soluble on expression in E. coli” value is “not soluble”.

For “MNASTSSPSQQLQQAINSTIDKECAVCYSEMILPTTIPSCGHKFCFICLKGVSVSNNGDCPICRGPIDSQIFKKPLQAVDLKMDIPGTPSAAAPDPVVKQEVDDEDVKPDVKKLQEELKKQQAAAAAQKMFWLYRGRHQGWWRFDPRIEKEIEEAFTHQMPMTEVTICGNPYIVDFSQMCQYPKNQSNYSRNVKYGSRLKVLKILAKIDRKSAF”, the “soluble on expression in E. coli” value is listed as “not soluble”.

Consider “VDMSNVVKTYDLQDGSKVHVFKDGKMGMENKFGKSMNMPEGKVMETRDGTKIIMKGNEIFRLDEALRKGHSEGG”, for which the “soluble on expression in E. coli” value is given as “soluble”.
